Data taken from patent US6706266, “Oncostatin M antagonists” (SmithKline Beecham Corporation).
Where “and” joins values, the source holds several entries; their conditions need not be identical. Identical values can stand only once.

T1: gp130 on HepG2 B6 cells (UniProt P40189 23-918, limits assumed)
T1 sequence (looked up): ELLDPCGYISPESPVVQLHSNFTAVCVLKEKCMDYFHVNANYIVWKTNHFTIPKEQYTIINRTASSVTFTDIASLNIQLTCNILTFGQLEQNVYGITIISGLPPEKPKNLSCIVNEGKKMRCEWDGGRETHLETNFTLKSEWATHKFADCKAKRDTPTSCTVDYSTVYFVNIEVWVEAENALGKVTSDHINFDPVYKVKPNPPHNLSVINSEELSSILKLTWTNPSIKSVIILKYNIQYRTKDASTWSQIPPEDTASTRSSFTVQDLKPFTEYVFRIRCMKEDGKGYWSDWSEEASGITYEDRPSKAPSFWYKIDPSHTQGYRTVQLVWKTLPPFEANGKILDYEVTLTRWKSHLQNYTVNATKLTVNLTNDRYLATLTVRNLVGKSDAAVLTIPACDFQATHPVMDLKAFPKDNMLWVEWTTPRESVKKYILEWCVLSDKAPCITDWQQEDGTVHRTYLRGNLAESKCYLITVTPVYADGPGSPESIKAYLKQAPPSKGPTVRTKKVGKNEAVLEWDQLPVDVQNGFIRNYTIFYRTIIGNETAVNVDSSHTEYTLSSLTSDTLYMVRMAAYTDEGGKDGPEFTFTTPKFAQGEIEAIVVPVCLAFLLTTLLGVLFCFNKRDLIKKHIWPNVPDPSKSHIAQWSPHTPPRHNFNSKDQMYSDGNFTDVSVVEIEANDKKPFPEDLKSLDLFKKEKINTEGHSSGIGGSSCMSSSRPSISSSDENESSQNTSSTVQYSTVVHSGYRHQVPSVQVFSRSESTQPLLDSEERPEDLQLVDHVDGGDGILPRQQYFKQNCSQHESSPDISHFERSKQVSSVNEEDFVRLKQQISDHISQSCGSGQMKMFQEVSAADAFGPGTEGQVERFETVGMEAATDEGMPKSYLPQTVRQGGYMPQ

T2: gp130-Fc fusion protein (human, UniProt P40189 23-619)
T2 construct: extracellular domain; not shown: Fc fragment of human IgG1
T2 sequence (looked up): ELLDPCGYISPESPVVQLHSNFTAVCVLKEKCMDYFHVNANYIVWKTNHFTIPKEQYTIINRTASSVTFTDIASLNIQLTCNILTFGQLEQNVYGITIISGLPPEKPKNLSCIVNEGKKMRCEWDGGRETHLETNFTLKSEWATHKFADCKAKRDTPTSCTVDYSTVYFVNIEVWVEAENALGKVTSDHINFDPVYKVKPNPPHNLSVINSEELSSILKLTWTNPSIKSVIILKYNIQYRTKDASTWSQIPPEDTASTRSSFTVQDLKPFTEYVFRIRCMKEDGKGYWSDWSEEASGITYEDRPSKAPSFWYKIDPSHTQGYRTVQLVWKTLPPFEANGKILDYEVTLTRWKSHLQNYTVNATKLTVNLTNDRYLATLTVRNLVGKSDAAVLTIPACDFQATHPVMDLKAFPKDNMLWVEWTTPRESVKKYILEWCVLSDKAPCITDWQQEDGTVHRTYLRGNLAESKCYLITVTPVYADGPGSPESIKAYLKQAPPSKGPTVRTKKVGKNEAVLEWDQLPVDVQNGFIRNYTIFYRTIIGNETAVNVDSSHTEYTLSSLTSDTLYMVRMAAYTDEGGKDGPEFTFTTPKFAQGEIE

B1: OSM-GST mutant L13A (ligand)
chain: AAIGSCSKEYRVALGQLQKQTDLMQDTSRLLDPYIRIQGLDVPKLREHCRERPGAFPSEETLRGLGRRGFLQTLNATLGCVLHRLADLEQRLPKAQDLERSGLNIEDLEKLQMARPNILGLRNNIYCMAQLLDNSDTAEPTKAGRGASQPPTPTPASDAFQRKLEGCRFLHGYHRFMHSVGRVFSKWGESPNRSRR
notes: Alanine mutant of m4; also called (6)L13A; 6 L13A; not shown: Its linker is left out
B2: OSM-GST mutant Q18A (ligand)
chain: AAIGSCSKEYRVLLGQLAKQTDLMQDTSRLLDPYIRIQGLDVPKLREHCRERPGAFPSEETLRGLGRRGFLQTLNATLGCVLHRLADLEQRLPKAQDLERSGLNIEDLEKLQMARPNILGLRNNIYCMAQLLDNSDTAEPTKAGRGASQPPTPTPASDAFQRKLEGCRFLHGYHRFMHSVGRVFSKWGESPNRSRR
notes: Alanine mutant of m4; also called (11)Q18A; 11 Q18A; not shown: Its linker is left out
B3: OSM-GST mutant P116A (ligand, not shown: a dimerising Fc or GST; large carriers; small tags and cut ends)
chain: AAIGSCSKEYRVLLGQLQKQTDLMQDTSRLLDPYIRIQGLDVPKLREHCRERPGAFPSEETLRGLGRRGFLQTLNATLGCVLHRLADLEQRLPKAQDLERSGLNIEDLEKLQMARANILGLRNNIYCMAQLLDNSDTAEPTKAGRGASQPPTPTPASDAFQRKLEGCRFLHGYHRFMHSVGRVFSKWGESPNRSRR
notes: Alanine mutant of m4; also called (17)P116A; 17 P116A
B4: OSM-GST mutant N117A (ligand, not shown: a dimerising Fc or GST; large carriers; small tags and cut ends)
chain: AAIGSCSKEYRVLLGQLQKQTDLMQDTSRLLDPYIRIQGLDVPKLREHCRERPGAFPSEETLRGLGRRGFLQTLNATLGCVLHRLADLEQRLPKAQDLERSGLNIEDLEKLQMARPAILGLRNNIYCMAQLLDNSDTAEPTKAGRGASQPPTPTPASDAFQRKLEGCRFLHGYHRFMHSVGRVFSKWGESPNRSRR
notes: Alanine mutant of m4; also called (18)N117A; 18 N117A
B5: OSM-GST mutant L14A (ligand)
chain: AAIGSCSKEYRVLAGQLQKQTDLMQDTSRLLDPYIRIQGLDVPKLREHCRERPGAFPSEETLRGLGRRGFLQTLNATLGCVLHRLADLEQRLPKAQDLERSGLNIEDLEKLQMARPNILGLRNNIYCMAQLLDNSDTAEPTKAGRGASQPPTPTPASDAFQRKLEGCRFLHGYHRFMHSVGRVFSKWGESPNRSRR
notes: Alanine mutant of m4; also called (7)L14A; 7 L14A; not shown: Its linker is left out
B6: OSM-GST mutant L17A (ligand)
chain: AAIGSCSKEYRVLLGQAQKQTDLMQDTSRLLDPYIRIQGLDVPKLREHCRERPGAFPSEETLRGLGRRGFLQTLNATLGCVLHRLADLEQRLPKAQDLERSGLNIEDLEKLQMARPNILGLRNNIYCMAQLLDNSDTAEPTKAGRGASQPPTPTPASDAFQRKLEGCRFLHGYHRFMHSVGRVFSKWGESPNRSRR
notes: Alanine mutant of m4; also called (10)L17A; 10 L17A; not shown: Its linker is left out
B7: OSM-GST mutant L119A (ligand, not shown: a dimerising Fc or GST; large carriers; small tags and cut ends)
chain: AAIGSCSKEYRVLLGQLQKQTDLMQDTSRLLDPYIRIQGLDVPKLREHCRERPGAFPSEETLRGLGRRGFLQTLNATLGCVLHRLADLEQRLPKAQDLERSGLNIEDLEKLQMARPNIAGLRNNIYCMAQLLDNSDTAEPTKAGRGASQPPTPTPASDAFQRKLEGCRFLHGYHRFMHSVGRVFSKWGESPNRSRR
notes: Alanine mutant of m4; also called (19)L119A; 19 L119A
B8: OSM-GST mutant M113A (ligand, not shown: a dimerising Fc or GST; large carriers; small tags and cut ends)
chain: AAIGSCSKEYRVLLGQLQKQTDLMQDTSRLLDPYIRIQGLDVPKLREHCRERPGAFPSEETLRGLGRRGFLQTLNATLGCVLHRLADLEQRLPKAQDLERSGLNIEDLEKLQAARPNILGLRNNIYCMAQLLDNSDTAEPTKAGRGASQPPTPTPASDAFQRKLEGCRFLHGYHRFMHSVGRVFSKWGESPNRSRR
notes: Alanine mutant of m4; also called (16)M113; 16 M113A
B9: OSM-GST mutant N124A (ligand, not shown: a dimerising Fc or GST; large carriers; small tags and cut ends)
chain: AAIGSCSKEYRVLLGQLQKQTDLMQDTSRLLDPYIRIQGLDVPKLREHCRERPGAFPSEETLRGLGRRGFLQTLNATLGCVLHRLADLEQRLPKAQDLERSGLNIEDLEKLQMARPNILGLRNAIYCMAQLLDNSDTAEPTKAGRGASQPPTPTPASDAFQRKLEGCRFLHGYHRFMHSVGRVFSKWGESPNRSRR
notes: Alanine mutant of m4; also called (23)N124A; 23 N124A

Columns and labels:
gp130 on HepG2 B6 cells = biological target: T1, gp130 on HepG2 B6 cells; assay: cell-based or functional assay
gp130-Fc fusion protein [1] = biological target: T2, gp130-Fc fusion protein; assay: competition ELISA: OSM-GST titrated against plate-bound wt OSM for gp130-Fc; mean
Method: (§1) Plates were washed (×6 in PBS 0.05% tween 20, using Skatron Plate washer), tapped dry and blocked to reduce non-specific binding (200 µl/well, 1% BSA/PBS). Following 1 h incubation (room temperature on a shaking platform) the plates were tapped dry and wild type (wt) or mutant OSM-GST from Example 9b added (50 µl/well, 20–0.002 µg/ml, titrated in 1%BSA/PBS). As a positive control polyclonal anti-human OSM antibody (R&D Systems) was also tested (20–0.02 µg/ml). […] Following a 5 h incubation (room temperature on a shaking platform) the plates were washed (×6) and developed using ELISA Amplification System (Life Technologies) as manufacturer's instructions and the OD measured at 490 nm.

gp130-Fc fusion protein [2] = biological target: T2, gp130-Fc fusion protein; assay: competition ELISA: OSM-GST titrated against plate-bound wt OSM for gp130-Fc; single experiment
Method: as §1

Row | Binder | sPAP HepG2 B6 assay: Expt 1 % (EC50 as % of wild type EC50) (gp130 on HepG2 B6 cells) [%] | sPAP HepG2 B6 assay: Expt 1 EC50 (gp130 on HepG2 B6 cells) [µg/mL] | sPAP HepG2 B6 assay: Expt 2 % (EC50 as % of wild type EC50) (gp130 on HepG2 B6 cells) [%] | sPAP HepG2 B6 assay: Expt 2 EC50 (gp130 on HepG2 B6 cells) [µg/mL] | sPAP HepG2 B6 assay: Mean % of wild type EC50 (gp130 on HepG2 B6 cells) [%] | IC50 (gp130-Fc fusion protein [1]) [µg/mL] | IC50 (gp130-Fc fusion protein [2])
1 | B1 | 269 | 0.0657 | 171 | 0.0549 | 220 | 2.53 | 2.96 µg/mL and 1.99 µg/mL and 2.64 µg/mL
2 | B2 | 84 | 0.0202 | 68 | 0.0217 | 76 | 0.395 | 0.32 µg/mL and 0.31 µg/mL and 0.555 µg/mL
3 | B3 | 104 | 0.025 | 47 | 0.015 | 75.5 | 0.199 | 0.232 µg/mL and 0.169 µg/mL and 0.197 µg/mL
4 | B4 | 241 | 0.058 | 132 | 0.0425 | 186 | 0.785 | 0.983 µg/mL and 0.756 µg/mL and 0.617 µg/mL
5 | B5 | 81 | 0.0194 | 77 | 0.0249 | 79 | 0.514 | 0.66 µg/mL and 0.47 µg/mL and 0.412 µg/mL
6 | B6 | 301 | 0.0727 | 174 | 0.056 | 238 | 1.82 | 2.21 µg/mL and 1.9 µg/mL and 1.35 µg/mL
7 | B7 | 115 | 0.0278 | 72 | 0.023 | 93.5 | 0.255 | 0.272 µg/mL and 0.266 µg/mL and 0.227 µg/mL
8 | B8 | 106 | 0.0256 | 78 | 0.025 | 92 | 0.321 | 0.511 µg/mL and 0.199 µg/mL and 0.252 µg/mL
9 | B9 | 125 | 0.0302 | 113 | 0.0362 | 119 | 1.99 | 1.63 µg/mL and 1.95 µg/mL and 2.38 µg/mL
